Measured values: patent US20240270846A1 (published 2024)

biological target: T1, CD3 epsilon homodimer protein (UniProt P07766 23-126); experiment: SPR Biacore T200, CD3 epsilon homodimer on chip, antibody as analyte;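 further: homodimer amine-coupled to a CM4 sensor chip, run at 25 °C in HBS-EP+ buffer, with kinetic parameters derived in Biacore T200 Evaluation Software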
T1 construct: also called CD3 (CD3 epsilon)
T1 sequence (P07766 23-126): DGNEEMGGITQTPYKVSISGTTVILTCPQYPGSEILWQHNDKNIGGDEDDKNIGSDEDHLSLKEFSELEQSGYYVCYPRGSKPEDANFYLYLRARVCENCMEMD
Method: An appropriate amount of CD3 epsilon homodimer protein was immobilized onto Sensor chip CM4 (GE Healthcare Japan Corp.) by the amine coupling method. Then, the antibody having an appropriate concentration was injected thereto as an analyte and allowed to interact with the CD3 epsilon homodimer protein on the sensor chip. Then, the sensor chip was regenerated by the injection of 10 mmol/L glycine-HCl (pH 1.5). The assay was conducted at 25 degrees C., and HBS-EP+(GE Healthcare Japan Corp.) was used as a running buffer. […] Each parameter was calculated using Biacore T200 Evaluation Software (GE Healthcare Japan Corp.).
Specifically, when the amount of the antibody comprising CE115HA000 bound was defined as X and the amount of the H chain one-amino acid altered form bound was defined as Y, a value of Z (ratio of amounts bound)=Y/X was used.

Row | Binder | KD ratio (KD of CE115HA000 / KD of altered form)
1 | CE115HA000 H chain altered form N53H (antibody, human IgG1, kappa, L234A L235A, N297A, name in Kabat numbering, one-arm antibody) heavy: QVQLVESGGGVVQPGRSLRLSCAASGFTFSNAWMHWVRQAPGKGLEWVAQIKAKSHNYATYYAESVKGRFTISRDDSKNSLYLQMNSLKTEDTAVYYCRYVHYGAYYGVDAWGQGTTVTVSSASTKGPSVFPLAPSSKSTSGGTAALGCLVKDYFPEPVTVSWNSGALTSGVHTFPAVLQSSGLYSLSSVVTVPSSSLGTQTYICNVNHKPSNTKVDKKVEPKSCDKTHTCPPCPAPEAAGGPSVFLFPPKPKDTLMISRTPEVTCVVVDVSHEDPEVKFNWYVDGVEVHNAKTKPREEQYASTYRVVSVLTVLHQDWLNGKEYKCKVSNKALPAPIEKTISKAKGQPREPQVYTLPPSRCELTKNQVSLSCAVKGFYPSDIAVEWESNGQPENNYKTTPPVLDSDGSFFLVSKLTVDKSRWQQGNVFSCSVMHEALHNHYTQKSLSLSPDYKDDDDK EPKSSDKTHTCPPCPAPELLGGPSVFLFPPKPKDTLMISRTPEVTCVVVDVSHEDPEVKFNWYVDGVEVHNAKTKPREEQYNSTYRVVSVLTVLHQDWLNGKEYKCKVSNKALPAPIEKTISKAKGQPREPQVCTLPPSRDELTKNQVSLWCLVKGFYPSDIAVEWESNGQPENNYKTTPPVLDSDGSFFLYSKLTVDKSRWQQGNVFSCSVMHEALHNRYTQKSLSLSP light: DIVMTQSPLSLPVTPGEPASISCRSSQSLVHSNRNTYLHWYQQKPGQAPRLLIYKVSNRFSGVPDRFSGSGSGTDFTLKISRVEAEDVGVYYCGQGTQVPYTFGQGTKLEIKRTVAAPSVFIFPPSDEQLKSGTASVVCLLNNFYPREAKVQWKVDNALQSGNSQESVTEQDSKDSTYSLSSTLTLSKADYEKHKVYACEVTHQGLSSPVTKSFNRGEC | 0.55
2 | CE115HA000 H chain altered form N53S (antibody, human IgG1, kappa, L234A L235A, N297A, name in Kabat numbering, one-arm antibody) heavy: QVQLVESGGGVVQPGRSLRLSCAASGFTFSNAWMHWVRQAPGKGLEWVAQIKAKSSNYATYYAESVKGRFTISRDDSKNSLYLQMNSLKTEDTAVYYCRYVHYGAYYGVDAWGQGTTVTVSSASTKGPSVFPLAPSSKSTSGGTAALGCLVKDYFPEPVTVSWNSGALTSGVHTFPAVLQSSGLYSLSSVVTVPSSSLGTQTYICNVNHKPSNTKVDKKVEPKSCDKTHTCPPCPAPEAAGGPSVFLFPPKPKDTLMISRTPEVTCVVVDVSHEDPEVKFNWYVDGVEVHNAKTKPREEQYASTYRVVSVLTVLHQDWLNGKEYKCKVSNKALPAPIEKTISKAKGQPREPQVYTLPPSRCELTKNQVSLSCAVKGFYPSDIAVEWESNGQPENNYKTTPPVLDSDGSFFLVSKLTVDKSRWQQGNVFSCSVMHEALHNHYTQKSLSLSPDYKDDDDK EPKSSDKTHTCPPCPAPELLGGPSVFLFPPKPKDTLMISRTPEVTCVVVDVSHEDPEVKFNWYVDGVEVHNAKTKPREEQYNSTYRVVSVLTVLHQDWLNGKEYKCKVSNKALPAPIEKTISKAKGQPREPQVCTLPPSRDELTKNQVSLWCLVKGFYPSDIAVEWESNGQPENNYKTTPPVLDSDGSFFLYSKLTVDKSRWQQGNVFSCSVMHEALHNRYTQKSLSLSP light: DIVMTQSPLSLPVTPGEPASISCRSSQSLVHSNRNTYLHWYQQKPGQAPRLLIYKVSNRFSGVPDRFSGSGSGTDFTLKISRVEAEDVGVYYCGQGTQVPYTFGQGTKLEIKRTVAAPSVFIFPPSDEQLKSGTASVVCLLNNFYPREAKVQWKVDNALQSGNSQESVTEQDSKDSTYSLSSTLTLSKADYEKHKVYACEVTHQGLSSPVTKSFNRGEC | 0.59
3 | CE115HA000 H chain altered form N53Q (antibody, human IgG1, kappa, L234A L235A, N297A, name in Kabat numbering, one-arm antibody) heavy: QVQLVESGGGVVQPGRSLRLSCAASGFTFSNAWMHWVRQAPGKGLEWVAQIKAKSQNYATYYAESVKGRFTISRDDSKNSLYLQMNSLKTEDTAVYYCRYVHYGAYYGVDAWGQGTTVTVSSASTKGPSVFPLAPSSKSTSGGTAALGCLVKDYFPEPVTVSWNSGALTSGVHTFPAVLQSSGLYSLSSVVTVPSSSLGTQTYICNVNHKPSNTKVDKKVEPKSCDKTHTCPPCPAPEAAGGPSVFLFPPKPKDTLMISRTPEVTCVVVDVSHEDPEVKFNWYVDGVEVHNAKTKPREEQYASTYRVVSVLTVLHQDWLNGKEYKCKVSNKALPAPIEKTISKAKGQPREPQVYTLPPSRCELTKNQVSLSCAVKGFYPSDIAVEWESNGQPENNYKTTPPVLDSDGSFFLVSKLTVDKSRWQQGNVFSCSVMHEALHNHYTQKSLSLSPDYKDDDDK EPKSSDKTHTCPPCPAPELLGGPSVFLFPPKPKDTLMISRTPEVTCVVVDVSHEDPEVKFNWYVDGVEVHNAKTKPREEQYNSTYRVVSVLTVLHQDWLNGKEYKCKVSNKALPAPIEKTISKAKGQPREPQVCTLPPSRDELTKNQVSLWCLVKGFYPSDIAVEWESNGQPENNYKTTPPVLDSDGSFFLYSKLTVDKSRWQQGNVFSCSVMHEALHNRYTQKSLSLSP light: DIVMTQSPLSLPVTPGEPASISCRSSQSLVHSNRNTYLHWYQQKPGQAPRLLIYKVSNRFSGVPDRFSGSGSGTDFTLKISRVEAEDVGVYYCGQGTQVPYTFGQGTKLEIKRTVAAPSVFIFPPSDEQLKSGTASVVCLLNNFYPREAKVQWKVDNALQSGNSQESVTEQDSKDSTYSLSSTLTLSKADYEKHKVYACEVTHQGLSSPVTKSFNRGEC | 1.05
4 | CE115HA000 H chain altered form N53W (antibody, human IgG1, kappa, L234A L235A, N297A, name in Kabat numbering, one-arm antibody) heavy: QVQLVESGGGVVQPGRSLRLSCAASGFTFSNAWMHWVRQAPGKGLEWVAQIKAKSWNYATYYAESVKGRFTISRDDSKNSLYLQMNSLKTEDTAVYYCRYVHYGAYYGVDAWGQGTTVTVSSASTKGPSVFPLAPSSKSTSGGTAALGCLVKDYFPEPVTVSWNSGALTSGVHTFPAVLQSSGLYSLSSVVTVPSSSLGTQTYICNVNHKPSNTKVDKKVEPKSCDKTHTCPPCPAPEAAGGPSVFLFPPKPKDTLMISRTPEVTCVVVDVSHEDPEVKFNWYVDGVEVHNAKTKPREEQYASTYRVVSVLTVLHQDWLNGKEYKCKVSNKALPAPIEKTISKAKGQPREPQVYTLPPSRCELTKNQVSLSCAVKGFYPSDIAVEWESNGQPENNYKTTPPVLDSDGSFFLVSKLTVDKSRWQQGNVFSCSVMHEALHNHYTQKSLSLSPDYKDDDDK EPKSSDKTHTCPPCPAPELLGGPSVFLFPPKPKDTLMISRTPEVTCVVVDVSHEDPEVKFNWYVDGVEVHNAKTKPREEQYNSTYRVVSVLTVLHQDWLNGKEYKCKVSNKALPAPIEKTISKAKGQPREPQVCTLPPSRDELTKNQVSLWCLVKGFYPSDIAVEWESNGQPENNYKTTPPVLDSDGSFFLYSKLTVDKSRWQQGNVFSCSVMHEALHNRYTQKSLSLSP light: DIVMTQSPLSLPVTPGEPASISCRSSQSLVHSNRNTYLHWYQQKPGQAPRLLIYKVSNRFSGVPDRFSGSGSGTDFTLKISRVEAEDVGVYYCGQGTQVPYTFGQGTKLEIKRTVAAPSVFIFPPSDEQLKSGTASVVCLLNNFYPREAKVQWKVDNALQSGNSQESVTEQDSKDSTYSLSSTLTLSKADYEKHKVYACEVTHQGLSSPVTKSFNRGEC | 0.69
5 | CE115HA000 H chain altered form N53K (antibody, human IgG1, kappa, L234A L235A, N297A, name in Kabat numbering, one-arm antibody) heavy: QVQLVESGGGVVQPGRSLRLSCAASGFTFSNAWMHWVRQAPGKGLEWVAQIKAKSKNYATYYAESVKGRFTISRDDSKNSLYLQMNSLKTEDTAVYYCRYVHYGAYYGVDAWGQGTTVTVSSASTKGPSVFPLAPSSKSTSGGTAALGCLVKDYFPEPVTVSWNSGALTSGVHTFPAVLQSSGLYSLSSVVTVPSSSLGTQTYICNVNHKPSNTKVDKKVEPKSCDKTHTCPPCPAPEAAGGPSVFLFPPKPKDTLMISRTPEVTCVVVDVSHEDPEVKFNWYVDGVEVHNAKTKPREEQYASTYRVVSVLTVLHQDWLNGKEYKCKVSNKALPAPIEKTISKAKGQPREPQVYTLPPSRCELTKNQVSLSCAVKGFYPSDIAVEWESNGQPENNYKTTPPVLDSDGSFFLVSKLTVDKSRWQQGNVFSCSVMHEALHNHYTQKSLSLSPDYKDDDDK EPKSSDKTHTCPPCPAPELLGGPSVFLFPPKPKDTLMISRTPEVTCVVVDVSHEDPEVKFNWYVDGVEVHNAKTKPREEQYNSTYRVVSVLTVLHQDWLNGKEYKCKVSNKALPAPIEKTISKAKGQPREPQVCTLPPSRDELTKNQVSLWCLVKGFYPSDIAVEWESNGQPENNYKTTPPVLDSDGSFFLYSKLTVDKSRWQQGNVFSCSVMHEALHNRYTQKSLSLSP light: DIVMTQSPLSLPVTPGEPASISCRSSQSLVHSNRNTYLHWYQQKPGQAPRLLIYKVSNRFSGVPDRFSGSGSGTDFTLKISRVEAEDVGVYYCGQGTQVPYTFGQGTKLEIKRTVAAPSVFIFPPSDEQLKSGTASVVCLLNNFYPREAKVQWKVDNALQSGNSQESVTEQDSKDSTYSLSSTLTLSKADYEKHKVYACEVTHQGLSSPVTKSFNRGEC | 0.79
6 | CE115HA000 H chain altered form N53I (antibody, human IgG1, kappa, L234A L235A, N297A, name in Kabat numbering, one-arm antibody) heavy: QVQLVESGGGVVQPGRSLRLSCAASGFTFSNAWMHWVRQAPGKGLEWVAQIKAKSINYATYYAESVKGRFTISRDDSKNSLYLQMNSLKTEDTAVYYCRYVHYGAYYGVDAWGQGTTVTVSSASTKGPSVFPLAPSSKSTSGGTAALGCLVKDYFPEPVTVSWNSGALTSGVHTFPAVLQSSGLYSLSSVVTVPSSSLGTQTYICNVNHKPSNTKVDKKVEPKSCDKTHTCPPCPAPEAAGGPSVFLFPPKPKDTLMISRTPEVTCVVVDVSHEDPEVKFNWYVDGVEVHNAKTKPREEQYASTYRVVSVLTVLHQDWLNGKEYKCKVSNKALPAPIEKTISKAKGQPREPQVYTLPPSRCELTKNQVSLSCAVKGFYPSDIAVEWESNGQPENNYKTTPPVLDSDGSFFLVSKLTVDKSRWQQGNVFSCSVMHEALHNHYTQKSLSLSPDYKDDDDK EPKSSDKTHTCPPCPAPELLGGPSVFLFPPKPKDTLMISRTPEVTCVVVDVSHEDPEVKFNWYVDGVEVHNAKTKPREEQYNSTYRVVSVLTVLHQDWLNGKEYKCKVSNKALPAPIEKTISKAKGQPREPQVCTLPPSRDELTKNQVSLWCLVKGFYPSDIAVEWESNGQPENNYKTTPPVLDSDGSFFLYSKLTVDKSRWQQGNVFSCSVMHEALHNRYTQKSLSLSP light: DIVMTQSPLSLPVTPGEPASISCRSSQSLVHSNRNTYLHWYQQKPGQAPRLLIYKVSNRFSGVPDRFSGSGSGTDFTLKISRVEAEDVGVYYCGQGTQVPYTFGQGTKLEIKRTVAAPSVFIFPPSDEQLKSGTASVVCLLNNFYPREAKVQWKVDNALQSGNSQESVTEQDSKDSTYSLSSTLTLSKADYEKHKVYACEVTHQGLSSPVTKSFNRGEC | 0.57
